This is an account of results in the PETadex activity labels (doi:10.1101/2025.08.30.673199).

Where a chain is given by its changes, count along the chain named.

Sequences and labels used below:
B1: unnamed (protein)
chain: MKAPLFKLAAFTLGVSLSSVALATNPGGGGAGSNPDTGTGFPGVSSFSADGSFATTSGSAGLSCTVFRPSTLGANGLKHPIIVWGNGTTASPSTYSGILEHWASHGFVVIAANTSNAGTGQDMLNCVDYLTTQNNRSTGTYANKLDLNRIGAAGHSQGGGGTIMAGQDYRIKVTAPFQPYTIGLGHNSSSQSNQNGPMFLMTGSADTIASPTLNALPVYNRANVPVFWGELSGASAFEPVGSAGDFRGPSTAWFRYHLMDDASAEDTFYGSNCDLCTDNDWDVRRKGIN
B2: unnamed (protein)
chain: B1 chain with G183A, A236H
B3: unnamed (protein)
chain: B1 chain with A236H, F237I
B4: unnamed (protein)
chain: B1 chain with Y180W, A236H

Substrate in this series: PET
As to the kind of experiment: Proxy for plastic degradation [Released monomer concentration (HPLC/LC-MS) (TPA+MHET+BHET)]. Conditions: pH 9.
As to B1, the “Proxy for plastic degradation” value is 10 µM.
Then B2, with 600 µM; and B3, with 1280 µM; and B4, with 195 µM.
